Laboratory results from US20230190950A1, “COMPOSITIONS AND METHODS FOR THE TREATMENT OF BACTERIAL INFECTIONS” (Cidara Therapeutics, Inc., priority 2017, published 2023).

Columns and labels:
[1] = tested on: Escherichia coli ATCC BAA-2469; assay: MIC assay (broth microdilution), Ec 2469; assay type: cell-based; settings: assay media RPMI A
Method: (§1) Bacterial strains were stored as glycerol stocks at −80° C. prior to culturing on cation-adjusted Mueller-Hinton agar (MHA; BD cat. no. 211438) at 37° C. Antibacterial activity was assessed against a panel consisting of Escherichia coli, Acinetobacter baumannii, Pseudomonas aeruginosa, and Klebsiella pneumoniae strains (see Table 2).
(§2) Briefly, stock solutions of all antibacterial agents were prepared fresh in appropriate solvents (i.e. PBS, pH 7.4, DMSO, DI, etc.). Stock concentrations were made at 50× the highest final assay concentration and serially diluted 2-fold, 8 or 12 times in a 96-well PCR plate (VWR cat. no. 83007-374). Bacterial cell suspensions generated from MHA plate cultures were prepared in 0.85% saline and adjusted to ˜0.1 OD600 nm. […] Dorschner R A et al., The mammalian ionic environment dictates microbial susceptibility to antimicrobial defense peptides. FASEB J. 20(1):35-42 (2017). Ninety-eight microliters of each cell suspension in MHB were added to test wells in a 96-well assay plate (Costar cat. no. 3370). A Beckman Multimek 96 liquid handling robot was used to dispense 2 μL of each 50× stock compound into the plate containing 98 μL of each strain in MHB (2% final solvent concentration). E. coli strains BW25113 and ATCC 25922 were run in the presence and absence of 50% heat-inactivated fetal bovine serum (FBS; Sigma, cat. no. F4135-100 mL). Plates were mixed by shaking then incubated at 37° C. overnight (16-20 h).

[2] = tested on: Escherichia coli BW25113; assay: MIC assay (broth microdilution), Ec BW; assay type: cell-based; settings: assay media RPMI A
Method: as §1, §2

[3] = tested on: Escherichia coli ATCC 25922; assay: MIC assay (broth microdilution), Ec 25922; assay type: cell-based; settings: assay media RPMI A
Method: as §1, §2

[4] = tested on: Acinetobacter baumannii ATCC 19606; assay: MIC assay (broth microdilution), Ab 19606; assay type: cell-based; settings: assay media RPMI A
Method: as §1, §2

[5] = tested on: Acinetobacter baumannii ATCC 179778; assay: MIC assay (broth microdilution), Ab 17978; assay type: cell-based; settings: assay media RPMI A
Method: as §1
(§3) Briefly, stock solutions of all antibacterial agents were prepared fresh in appropriate solvents (i.e. PBS, pH 7.4, DMSO, DI, etc.). Stock concentrations were made at 50× the highest final assay concentration and serially diluted 2-fold, 8 or 12 times in a 96-well PCR plate (VWR cat. no. 83007-374). Bacterial cell suspensions generated from MHA plate cultures were prepared in 0.85% saline and adjusted to ˜0.1 OD600 nm. Next, cell suspensions were diluted 1:200 in RPMI containing 5% Luria Broth (LB) to improve bacterial growth (BD Difco, cat. no. 244620) to a concentration of ˜5×10^5 CFU (colony-forming units)/mL. […] Later, conjugates 16 and 17, and 20-25 were evaluated in RPMI 1640 medium (+) L-glutamine, (+) sodium bicarbonate, pH 7.4 (“RPMI B”; Gibco, cat. no. 11875-085) as has been described as a more physiologically-relevant media for susceptibility testing of antibacterial compounds. Dorschner R A et al., The mammalian ionic environment dictates microbial susceptibility to antimicrobial defense peptides. FASEB J. 20(1):35-42 (2017). […]

[6] = tested on: Escherichia coli BW25113 4X-12 (COL-R); assay: MIC assay (broth microdilution), Ec BW 4X-12 (COL-R); assay type: cell-based; settings: assay media RPMI A
Method: as §1
(§4) Briefly, stock solutions of all antibacterial agents were prepared fresh in appropriate solvents (i.e. PBS, pH 7.4, DMSO, DI, etc.). Stock concentrations were made at 50× the highest final assay concentration and serially diluted 2-fold, 8 or 12 times in a 96-well PCR plate (VWR cat. no. 83007-374). Bacterial cell suspensions generated from MHA plate cultures were prepared in 0.85% saline and adjusted to ˜0.1 OD600 nm. Next, cell suspensions were diluted 1:200 in RPMI containing 5% Luria Broth (LB) to improve bacterial growth (BD Difco, cat. no. 244620) to a concentration of ˜5×10^5 CFU (colony-forming units)/mL. […] Later, conjugates 16 and 17, and 20-25 were evaluated in RPMI 1640 medium (+) L-glutamine, (+) sodium bicarbonate, pH 7.4 (“RPMI B”; Gibco, cat. no. 11875-085) as has been described as a more physiologically-relevant media for susceptibility testing of antibacterial compounds. Dorschner R A et al., The mammalian ionic environment dictates microbial susceptibility to antimicrobial defense peptides. FASEB J. 20(1):35-42 (2017). Ninety-eight microliters of each cell suspension in MHB were added to test wells in a 96-well assay plate (Costar cat. no. 3370). A Beckman Multimek 96 liquid handling robot was used to dispense 2 μL of each 50× stock compound into the plate containing 98 μL of each strain in MHB (2% final solvent concentration). E. coli strains BW25113 and ATCC 25922 were run in the presence and absence of 50% heat-inactivated fetal bovine serum (FBS; Sigma, cat. no. F4135-100 mL). Plates were mixed by shaking then incubated at 37° C. overnight (16-20 h).

[7] = tested on: Pseudomonas aeruginosa PAO1; assay: MIC assay (broth microdilution), Pa PAO1; assay type: cell-based; settings: assay media RPMI A
Method: as §1, §4

[8] = tested on: Pseudomonas aeruginosa ATCC 27853; assay: MIC assay (broth microdilution), Pa 27853; assay type: cell-based; settings: assay media RPMI A
Method: as §1, §3

[9] = tested on: Escherichia coli BW25113 + pUC18-mcr-1; assay: MIC assay (broth microdilution), Ec BW (mcr-1); assay type: cell-based; settings: assay media RPMI A
Text: An mcr-1 expression plasmid was constructed (GenScript; Piscataway, N.J.) using the pUC18 high copy number plasmid (Yanisch-Perron, et al., 1985). A 1649-bp fragment was synthesized containing, in order from 5′ to 3′: EcoR1 restriction site (5′-GAATTC-3′), a ribosomal binding site (5′-AGGAGG-3′), a 5-bp native start codon upstream sequence (5′-TTCTC-3′) from the mcr-1-bearing plasmid pHNSHP45 (Liu, Y Y, et al., 2015; GenBank Accession #KP347127), the 1626-bp mcr-1 open reading frame with stop codon (“orf00073” of GenBank Accession #KP347127), and finally an Xba1 restriction site sequence (5′-TCTAGA-3′). […] The pUC18-mcr-1 plasmid was transformed into chemically-competent E. coli BW25113 (Coli Genetic Stock Center #7636) as described previously (Chung, et al., PNAS. 1989), recovered for 1 h shaking at 37° C. in Super Optimal broth with Catabolite repression (SOC) media and then aliquots were plated on Luria-Bertani (LB) media containing 100 μg/mL of carbenicillin. Putative transformant colonies were then verified in MIC assays.
as §1
Briefly, stock solutions of all antibacterial agents were prepared fresh in appropriate solvents (i.e. PBS, pH 7.4, DMSO, DI, etc.). Stock concentrations were made at 50× the highest final assay concentration and serially diluted 2-fold, 8 or 12 times in a 96-well PCR plate (VWR cat. no. 83007-374). Bacterial cell suspensions generated from MHA plate cultures were prepared in 0.85% saline and adjusted to ˜0.1 OD600 nm. […] Later, conjugates 16 and 17, and 20-25 were evaluated in RPMI 1640 medium (+) L-glutamine, (+) sodium bicarbonate, pH 7.4 (“RPMI B”; Gibco, cat. no. 11875-085) as has been described as a more physiologically-relevant media for susceptibility testing of antibacterial compounds. […]

[10] = tested on: Acinetobacter baumannii ABS075-UW; assay: MIC assay (broth microdilution), Ab ABS075; assay type: cell-based; settings: assay media RPMI A
Method: as §1, §2

[11] = tested on: E. coli ATCC 25922; assay: Complement-dependent cytotoxicity (CDC) assay; assay type: cell-based, Escherichia coli; settings: 0.2 uM; 10% normal human serum; 90 minutes
Method: Gram-negative bacteria were cultured overnight in Luria-Bertani (LB) (BD Difco™ Cat. 244620) at 37° C. under constant agitation. The next day, bacteria were grown to log phase until the OD600 reached 0.4 (˜10^8 CFU/mL). Bacteria were washed in DPBS pH 7.4 (Gibco 10010-023) resuspended in RPMI 1640 (Gibco 11-835-055) at 10^6 CFU/mL and […] was added to the wells of a 96-well, TC-treated, polystyrene plate (Fisher 08-772-2C).
The plates were incubated at 37° C. for 90 minutes. At the end of the assay, wells were serially diluted in sterile water and remaining bacteria were cultured overnight at 37° C. on agar plates. Colonies were counted the next day and CFU/mL and % survival normalized to RPMI control was determined using the following equations: CFU/mL=(colonies*dilution factor)/volume and […] normalized to RPMI=([CFU/mL of test condition]/[CFU/mL of molecule in RPMI])*100.

Molecule | MIC, Ec 2469 [1] | MIC, Ec BW [2] | MIC, Ec BW + FBS ([2]; 50% heat-inactivated FBS) | MIC, Ec 25922 [3] | MIC, Ec 25922 + FBS ([3]; 50% heat-inactivated FBS) | MIC Ab 19606 [4] | MIC Ab 17978 [5] | MIC, Ec BW 4X-12 (COL-R) [6] | MIC Pa PAO1 [7] | MIC Pa 27853 [8] | MIC, Ec BW (mcr-1) [9] | MIC Ab AB5075 [10] | antibacterial activity in the presence of 10% complement active NHS [11]
Conjugate 26: "Conjugate of m-IgG2a(His)6 Fc-3(Int-13)"; mlgG2a(His)6 Fc (SEQ ID NO: 6), reduced hinge disulfides; DAR=2/Fc dimer (conjugate, conjugated to Int-13 at hinge cysteines, "Conjugate of m-IgG2a(His)6 Fc-3(Int-13)"; DAR=2/Fc dimer) PRGPTIKPCPPCKCPAPNLLGGPSVFIFPPKIKDVLMISLSPIVTCVVVDVSEDDPDVQISWFVNNVEVHTAQTQTHREDYNSTLRVVSALPIQHQDWMSGKEFKCKVNNKDLPAPIERTISKPKGSVRAPQVYVLPPPEEEMTKKQVTLTCMVTDFMPEDIYVEWTNNGKTELNYKNTEPVLDSDGSYFMYSKLRVEKKNWVERNSYSCSVVHEGLHNHHTTKSFSRTPGKHHHHHH | 32 µg/mL | 16 µg/mL | 32 µg/mL | >128 µg/mL | 128 µg/mL | 128 µg/mL | 64 µg/mL | >128 µg/mL | 64 µg/mL | 16 µg/mL | >128 µg/mL | 32 µg/mL | 
control molecule: "unconjugated control Fc molecule (m-IgG2a type; SEQ ID NO: 2)" (protein, listed as Mus musculus) PRGPTIKPCPPCKCPAPNLLGGPSVFIFPPKIKDVLMISLSPIVTCVVVDVSEDDPDVQISWFVNNVEVHTAQTQTHREDYNSTLRVVSALPIQHQDWMSGKEFKCKVNNKDLPAPIERTISKPKGSVRAPQVYVLPPPEEEMTKKQVTLTCMVTDFMPEDIYVEWTNNGKTELNYKNTEPVLDSDGSYFMYSKLRVEKKNWVERNSYSCSVVHEGLHNHHTTKSFSRTPGK |  |  |  |  |  |  |  |  |  |  |  |  | no antibacterial activity
